Values quoted from earlier work, collected in publication PMC4317646.

Target: ADP-G-actin (Saccharomyces cerevisiae) (UniProt P60010)

Chain of C-Srv2 C-terminal half (P17555 253-526): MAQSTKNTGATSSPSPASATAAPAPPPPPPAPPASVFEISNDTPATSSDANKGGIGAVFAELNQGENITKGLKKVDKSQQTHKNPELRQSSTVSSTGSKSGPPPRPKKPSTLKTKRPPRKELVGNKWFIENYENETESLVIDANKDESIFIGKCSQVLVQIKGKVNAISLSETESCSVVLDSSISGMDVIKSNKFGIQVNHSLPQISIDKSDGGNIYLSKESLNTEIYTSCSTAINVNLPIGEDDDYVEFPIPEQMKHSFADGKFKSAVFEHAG

Kd: 18 nM
Substance: C-Srv2 C-terminal half (from UniProt P17555)
